T1: human GIP receptor (human) (UniProt P48546)
T1 sequence (looked up): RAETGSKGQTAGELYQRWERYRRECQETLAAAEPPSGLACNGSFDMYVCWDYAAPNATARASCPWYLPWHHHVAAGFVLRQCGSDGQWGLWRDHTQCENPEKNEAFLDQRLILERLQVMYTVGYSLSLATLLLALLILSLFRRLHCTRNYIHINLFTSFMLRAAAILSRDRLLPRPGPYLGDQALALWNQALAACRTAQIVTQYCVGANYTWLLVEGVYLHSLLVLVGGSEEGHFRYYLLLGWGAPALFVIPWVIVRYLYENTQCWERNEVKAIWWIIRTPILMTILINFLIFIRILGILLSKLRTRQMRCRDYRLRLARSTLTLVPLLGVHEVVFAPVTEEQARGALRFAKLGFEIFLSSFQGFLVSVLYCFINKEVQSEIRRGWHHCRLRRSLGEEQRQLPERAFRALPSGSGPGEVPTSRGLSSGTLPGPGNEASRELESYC


What was measured:
Experiment in all cases: cell-based or functional assay
[1] = target: human glucagon receptor (human) (UniProt P47871)
Sequence of human glucagon receptor (human) (P47871 26-477): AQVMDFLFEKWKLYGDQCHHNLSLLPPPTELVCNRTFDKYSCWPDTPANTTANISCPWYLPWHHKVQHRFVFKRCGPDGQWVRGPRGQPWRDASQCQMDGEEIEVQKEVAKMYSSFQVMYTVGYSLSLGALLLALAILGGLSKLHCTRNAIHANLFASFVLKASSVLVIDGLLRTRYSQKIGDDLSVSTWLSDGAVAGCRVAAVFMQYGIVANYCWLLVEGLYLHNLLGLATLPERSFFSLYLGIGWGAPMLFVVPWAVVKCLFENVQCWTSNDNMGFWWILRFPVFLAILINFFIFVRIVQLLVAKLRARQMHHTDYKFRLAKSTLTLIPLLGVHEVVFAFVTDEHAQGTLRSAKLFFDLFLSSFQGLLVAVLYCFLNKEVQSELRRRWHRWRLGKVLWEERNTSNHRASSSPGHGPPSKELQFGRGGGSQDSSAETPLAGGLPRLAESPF

[2] = target: T1, human GIP receptor (human)
[3] = target: hGLP-1R (Homo sapiens, UniProt P43220)
Sequence of hGLP-1R (P43220 24-463): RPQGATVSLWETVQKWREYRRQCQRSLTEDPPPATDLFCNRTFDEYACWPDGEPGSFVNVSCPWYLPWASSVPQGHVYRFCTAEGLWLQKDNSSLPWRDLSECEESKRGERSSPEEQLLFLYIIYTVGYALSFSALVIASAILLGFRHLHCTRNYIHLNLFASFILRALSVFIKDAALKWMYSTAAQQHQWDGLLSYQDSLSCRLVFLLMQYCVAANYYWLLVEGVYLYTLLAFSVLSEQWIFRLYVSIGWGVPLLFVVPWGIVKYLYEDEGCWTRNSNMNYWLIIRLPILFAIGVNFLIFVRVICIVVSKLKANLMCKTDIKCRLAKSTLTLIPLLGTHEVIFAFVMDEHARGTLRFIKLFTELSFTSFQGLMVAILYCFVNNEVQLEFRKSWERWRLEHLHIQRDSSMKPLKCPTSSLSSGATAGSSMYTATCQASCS

| Binder | Relative cAMP EC50 [1] | cAMP Rel EC50 (1% HSA) [1] | Relative cAMP EC50 [2] | cAMP Rel EC50 (1% HSA) [2] | Relative cAMP EC50 [3] | cAMP Rel EC50 (1% HSA) [3] | cAMP Rel EC50, nM (1% HSA) [1] | cAMP Rel EC50, nM (1% HSA) [2] | cAMP Rel EC50, nM (1% HSA) [3] |
| --- | --- | --- | --- | --- | --- | --- | --- | --- | --- |
| YXQGTFTSDXSKXLDKKAQXAFIEYLIEGGPSSGAPPPSGS (non-natural residues; lipidated Lys AEEA-γGlu-C18 diacid; C-term amide; synthetic construct; SITE 2: note = 2-Aminoisobutyric Acid; SITE 10: note = 3-(4-Pyridyl)-L-alanine; SITE 13: note = alpha-methyl-leucine; SITE 17: note = Lysine is chemically modified through conjugation of the epsilon-amino group of the Lysine side chain with (2-[2-(2-Amino-ethoxy)-ethoxy]-acetyl)) [Example 908] | 8.11 nM | 980 nM | 0.246 nM | 26.7 nM | 1.2 nM | 174 nM | – | – | – |
| YXQGTFTSDXSQXLDKKAQXAFIEYLIEXGPSSGAPPPSGS (Lys acylated γGlu-C18 diacid; non-natural residues; C-amide; synthetic construct; SITE 2: note = 2-Aminoisobutyric Acid; SITE 10: note = 3-(4-Pyridyl)-L-alanine; SITE 13: note = alpha-methyl-leucine; SITE 17: note = Lysine is chemically modified through conjugation of the epsilon-amino group of the Lysine side chain with (gamma-Glu)-(D-Glutamic acid)2-CO-(CH2)) [Example 922] | – | 1170 nM | – | 6.39 nM | – | 357 nM | – | – | – |
| YXQGTFTSDXSKXLDKKAQXAFIEXLIEXGPSSGAPPPSGS (Aib, 4Pal, αMeL, Me4Pal; acylated Lys; C-terminal amide; synthetic construct; SITE 2: note = 2-Aminoisobutyric Acid; SITE 10: note = 3-(4-Pyridyl)-L-alanine; SITE 13: note = alpha-methyl-leucine; SITE 17: note = Lysine is chemically modified through conjugation of the epsilon-amino group of the Lysine side chain with (2-[2-(2-Amino-ethoxy)-ethoxy]-acetyl)) [Example 914] | – | 983 nM | – | 5.94 nM | – | 91.7 nM | – | – | – |
| YXQGTFTSDXSQXLDKKAQXAFIEYLIEXGPSSGAPPPSGS (non-natural residues; C18 diacid-e-γGlu-e on Lys; C-terminal amide; synthetic construct; SITE 2: note = 2-Aminoisobutyric Acid; SITE 10: note = 3-(4-Pyridyl)-L-alanine; SITE 13: note = alpha-methyl-leucine; SITE 17: note = Lysine is chemically modified through conjugation of the epsilon-amino group of the Lysine side chain with D-Glutamic acid-(gamma-Glu)-D-Glutamic) [Example 923] | – | 1840 nM | – | 18.5 nM | – | 870 nM | – | – | – |
| YXQGTFTSDXSXXLDKKAQXAFIEXLIEGGPSSGAPPPSGS (Aib, 4Pal, Orn, Me4Pal; acylated lysine; amide; synthetic construct; SITE 2: note = 2-Aminoisobutyric Acid; SITE 10: note = 3-(4-Pyridyl)-L-alanine; SITE 12: note = L-ornithine; SITE 13: note = alpha-methyl-leucine; SITE 17: note = Lysine is chemically modified through conjugation of the epsilon-amino group of the Lysine side chain with (2-[2-(2-) [Example 949] | – | – | – | – | – | – | 317 nM | 26 nM | 721 nM |
| YXQGTFTSDXSXXLDXKAQXAFIEXLLEGGPSSGAPPPSGS (non-natural residues; lysine acylated AEEA-γGlu-C18 diacid; C-terminal amide; synthetic construct; SITE 2: note = 2-Aminoisobutyric Acid; SITE 10: note = 3-(4-Pyridyl)-L-alanine; SITE 12: note = L-ornithine; SITE 13: note = alpha-methyl-leucine; SITE 16: note = L-ornithine; SITE 17: note = Lysine is chemically modified through conjugation of the epsilon-amino group of the Lys) [Example 933] | 5.51 nM | 1530 nM | 0.259 nM | 35.1 nM | 2.32 nM | 557 nM | – | – | – |
| YXQGTFTSDXSQXLDKKAQXAFIEXLIEGGPSSGAPPPSGS (Aib, 4Pal, Me4Pal, αMeL; lipidated Lys; C-terminal amide; synthetic construct; SITE 2: note = 2-Aminoisobutyric Acid; SITE 10: note = 3-(4-Pyridyl)-L-alanine; SITE 13: note = alpha-methyl-leucine; SITE 17: note = Lysine is chemically modified through conjugation of the epsilon-amino group of the Lysine side chain with (gamma-Glu)2-CO-(CH2)16-CO2H; SITE 20:) [Example 951] | – | – | – | – | – | – | 657 nM | 18.2 nM | 382 nM |
| YXQGTFTSDXSRXLDKKAQXAFIEXLLEGGPSSGAPPPSGS (non-natural residues; lipidated Lys; C-terminal amide; synthetic construct; SITE 2: note = 2-Aminoisobutyric Acid; SITE 10: note = 3-(4-Pyridyl)-L-alanine; SITE 13: note = alpha-methyl-leucine; SITE 17: note = Lysine is chemically modified through conjugation of the epsilon-amino group of the Lysine side chain with (2-[2-(2-Amino-ethoxy)-ethoxy]-acetyl)) [Example 909] | 6.82 nM | 1740 nM | 0.121 nM | 20.2 nM | 1.72 nM | 243 nM | – | – | – |
| YXQGTFTSDXSQXLDXKAQXAFIEXLLEGGPSSGAPPPSGS (non-natural residues; Lys acylated C18 diacid; C-terminal amide; synthetic construct; SITE 2: note = 2-Aminoisobutyric Acid; SITE 10: note = 3-(4-Pyridyl)-L-alanine; SITE 13: note = alpha-methyl-leucine; SITE 16: note = L-ornithine; SITE 17: note = Lysine is chemically modified through conjugation of the epsilon-amino group of the Lysine side chain with (2-[2-(2-) [Example 932] | – | 513 nM | – | 25 nM | – | 249 nM | – | – | – |
